In patent US20070172470A1, “Phosphatase regulation of nucleic acid transcription” (The Regents of the University of California, priority 2003, published 2007):

Key:
[1] = tested on: P19 mouse embryonic stem cells; experiment: Neuronal differentiation of P19 cells; format: cell-based; details: clonal P19 line, retinoic acid, selective medium
Procedure: P19 cells, C, differentiated GFP expressing P19 cells; D, differentiated SCP1-expressing P19 cells; F, differentiated REST/NRSF-expressing P19 cells. Numbers of NLC per field are shown. *p=0.001 compared to WT 19 cells; **p=0.008 compared to WT P19 cell using student's t-test.
P19 stably expressing REST/NRSF.
These cell lines were maintained in α-MEM/10%FBS with […] G418. To induce neuronal differentiation, P19 cells were allowed to aggregate in bacterial grade petri-dishes (Fisher) at a seeding density of 1×10^5cells/ml in the presence of 1×10^−6M all-trans retinoic acid. After 3 days of aggregation, cells were dissociated into single cells by 0.05% trypsin-0.53 mM EDTA (Gibco). Trypsin was removed by centrifugation and the cells were plated in 6 cm tissue culture dishes (Nunc). at a density of 1×10^5 cells/cm^2 in Neurobasal medium/N2 supplement (Invitrogen) in the presence or absence of 1 μg/ml fibronectin (Invitrogen). The cells were cultured for 5 days after which average cell numbers/field were determined. Cells were either lysed to prepare total RNA (Rneasy kit, Qiagen) or stained with TuJ1 antibody (Babco).
For immunostaining, cells were fixed for 10 mins with 4% paraformaldehyde. TuJ1 antibody was used at 1:2000 and secondary antibody used was FITC-conjuagated anti-mouse (1:3000).

RNAP IIO = target: T1, RNAP IIO (Bos taurus, UniProt G3MZY8); experiment: CTD phosphatase assay with RNAP IIO as substrate; format: biochemical, calf
T1 construct: Calf thymus RNAP IIA was purified; from tissue; host or cells: calf thymus
Procedure: (§1) FIGS. 2C and 2D show a CTD phosphatase assay of FCP1 and SCP1 on GST-CTDo and RNAP IIO prepared by MAPK2/ERK2. Increasing amounts of FCP1 or GST-SCP1 214 were assayed in the presence of 75 fmol GST-CTDo (lanes 1-6), 75 fmol RNAP IIO (lanes 7-12), or 75 fmol GST-CTDo and 75. fmol RNAP IIO (lanes 13-18). Both GST-CTDo and RNAP IIO substrates were prepared by the in vitro phosphorylation of CKII-labeled GST-CTDa or RNAP IIA by MAPK2/ERK2. All reactions were carried out in the presence of 7 pmol RAP74. CTD dephosphorylation of both GST-CTDo and RNAP IIO is shown by the increase in mobility of GST-CTDo to GST-CTDa and subunit IIo to IIa, respectively. The difference in the intensity of radiolabeled GST-CTDoand that of radiolabeled subunit IIo is not a reflection of a difference in the amount of substrates present, but of the higher efficiency with which CKII incorporates radiolabeled phosphates onto the most C-terminal serine of GST-CTDa compared to subunit. IIa.
Increasing amounts of GST-SCP1 214 were assayed in the presence of 3.7 fmol RNAP IIO prepared by CTDK1/CTDK2, TFIIH, P-TEFb, MAPK2/ERK2 and Cdc2 kinase. All reactions were carried out in-the presence of 7 pmol. RAP74. CTD dephosphorylation of RNAP IIO isozymes. by qSTSCP1 214 is shown by an increase in mobility of subunit IIo to that of IIa. The results are summarized in the graph showing the percent of RNAP IIO remaining as a function of increasing SCP1 concentrations.
Preparation and Purification of ^32P-RNAP IIO Isozymess and ^32P-GST-CTDo: Calf thymus RNAP IIA was purified by the method of Hodo and Blatti (30) with modifications as described by Kang and Dahmus (31). Specific isozymes of ^32p-labeled RNAP IIO were prepared by phosphorylation at the most C-terminal serine (CKII site) in the largest subunit of purified RNAP IIA with recombinant CKII and […], followed by CTD phosphorylation in the presence of 2 mM ATP with either purified CTDK1/CTDK2, TFIIH, P-TEFb, recombinant MAPK2/ERK2 or recombinant Cdc2 kinase. The RNAP IIO isozymes were individually purified over a DE53 column with a step elution of 500 mM KCl (28). Because only the most C-terminal serine is labeled with ^32p and lies outside. the consensus repeat, dephosphorylation by CTD phosphatase results in an electrophoretic mobility shift in SDS-PAGE of subunit IIo to the position of subunit IIa without the loss of label. Similarly, ^32P-labeled GST-CTDo was prepared from GST-CTDa by CKII followed by MAPK2/ERK2. GST-CTDo was purified over a glutathione-agarose column with a step elution of 15 mM glutathione.
CTD phosphatase assays utilizing RNAP IIO and GST-CTDo as substrate were performed as described previously (32) with minor modifications. Reactions were performed in 20 μl of CTD phosphatase buffer (50 mM Tris-HCl, pH 7.9, 10 mM MgCl2, 20% glycerol, 0.025% Tween 80, 0.1 mM EDTA, 5 mM DTT) in the presence of 20 mM KCl. Each reaction contained specified amounts of GST-CTDo and/or RNAP IIO and was carried out in the presence of 7 pmol RAP74. Reactions were initiated by the addition of FCP1 or SCP1 and incubated at 30° C. for 30 minutes. Assays were terminated by the addition of 5× Laemmli buffer, and RNAP II subunits and GST-CTD were resolved on a 5% SDS-PAGE gel. The gel images were developed by autoradiography and scanned by Molecular Dynamics Image Scanner Storm 860 in the phosphor screen mode. Data were quantitatively analyzed by ImageQuant software.

GST-CTDo = target: T2, GST-CTDo (Homo sapiens, UniProt P24928); experiment: CTD phosphatase assay with GST-CTDo (rCTDo) as substrate; format: biochemical
T2 construct: made in house
T2 sequence (P24928 1593-1960 A1835T, one chain of several): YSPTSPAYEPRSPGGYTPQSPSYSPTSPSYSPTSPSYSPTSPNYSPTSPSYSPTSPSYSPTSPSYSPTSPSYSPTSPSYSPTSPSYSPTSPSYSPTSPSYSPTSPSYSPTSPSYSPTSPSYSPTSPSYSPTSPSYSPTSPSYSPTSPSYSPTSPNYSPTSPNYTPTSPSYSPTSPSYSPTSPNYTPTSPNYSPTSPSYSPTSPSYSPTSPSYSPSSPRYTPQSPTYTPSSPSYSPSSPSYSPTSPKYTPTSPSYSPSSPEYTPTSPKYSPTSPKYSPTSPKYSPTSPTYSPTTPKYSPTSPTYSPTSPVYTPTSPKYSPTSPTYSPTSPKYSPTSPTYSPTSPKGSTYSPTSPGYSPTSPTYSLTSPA
Procedure: as §1
Preparation and Purification of ^32P-RNAP IIO Isozymess and ^32P-GST-CTDo: Calf thymus RNAP IIA was purified by the method of Hodo and Blatti (30) with modifications as described by Kang and Dahmus (31). […]
CTD phosphatase assays utilizing RNAP IIO and GST-CTDo as substrate were performed as described previously (32) with minor modifications. […] Data were quantitatively analyzed by ImageQuant software.

[2] = tested on: 28 aa CTD heptad repeat peptide with Ser 5 phosphate or Ser 2 phosphate; experiment: CTD phosphopeptide phosphatase assay (malachite green); format: biochemical; details: 25 μM phosphopeptide, 60 mins at 37° C.
Procedure: The indicated amounts of. SCP1 were incubated with the phosphopeptide substrate and phosphate released was measured as described infra.
N-terminal biotinylated CTD phosphopeptides, comprised of 4 tandem repeats YSPTSPS and containing phosphoserine at position 2 or position 5, were synthesized (Alpha Diagnostics, San Antonio, Tex.). Phosphatase reaction mixtures (50 μl) containing 50 mM Tris-acetate, pH 5.5, 10 mM MgCl2, 0.5 mM DTT, 10% glycerol, 25 μM of phosphopeptide and wild type or mutant SCP1 were incubated for 60 mins at 37° C. The reactions were quenched by adding 0.5 ml of malachite green (Biomol). Phosphate release was measured at A620 and quantified relative to a phosphate standard curve.

B1: REST/NRSF: RE-1 silencing transcription factor / Neuron-Restrictive Silencer Factor (protein, UniProt Q13127 1-1097, looked up)
RE1-silencing transcription …: MATQVMGQSSGGGGLFTSSGNIGMALPNDMYDLHDLSKAELAAPQLIMLANVALTGEVNGSCCDYLVGEERQMAELMPVGDNNFSDSEEGEGLEESADIKGEPHGLENMELRSLELSVVEPQPVFEASGAPDIYSSNKDLPPETPGAEDKGKSSKTKPFRCKPCQYEAESEEQFVHHIRVHSAKKFFVEESAEKQAKARESGSSTAEEGDFSKGPIRCDRCGYNTNRYDHYTAHLKHHTRAGDNERVYKCIICTYTTVSEYHWRKHLRNHFPRKVYTCGKCNYFSDRKNNYVQHVRTHTGERPYKCELCPYSSSQKTHLTRHMRTHSGEKPFKCDQCSYVASNQHEVTRHARQVHNGPKPLNCPHCDYKTADRSNFKKHVELHVNPRQFNCPVCDYAASKKCNLQYHFKSKHPTCPNKTMDVSKVKLKKTKKREADLPDNITNEKTEIEQTKIKGDVAGKKNEKSVKAEKRDVSKEKKPSNNVSVIQVTTRTRKSVTEVKEMDVHTGSNSEKFSKTKKSKRKLEVDSHSLHGPVNDEESSTKKKKKVESKSKNNSQEVPKGDSKVEENKKQNTCMKKSTKKKTLKNKSSKKSSKPPQKEPVEKGSAQMDPPQMGPAPTEAVQKGPVQVEPPPPMEHAQMEGAQIRPAPDEPVQMEVVQEGPAQKELLPPVEPAQMVGAQIVLAHMELPPPMETAQTEVAQMGPAPMEPAQMEVAQVESAPMQVVQKEPVQMELSPPMEVVQKEPVQIELSPPMEVVQKEPVKIELSPPIEVVQKEPVQMELSPPMGVVQKEPAQREPPPPREPPLHMEPISKKPPLRKDKKEKSNMQSERARKEQVLIEVGLVPVKDSWLLKESVSTEDLSPPSPPLPKENLREEASGDQKLLNTGEGNKEAPLQKVGAEEADESLPGLAANINESTHISSSGQNLNTPEGETLNGKHQTDSIVCEMKMDTDQNTRENLTGINSTVEEPVSPMLPPSAVEEREAVSKTALASPPATMAANESQEIDEDEGIHSHEGSDLSDNMSEGSDDSGLHGARPVPQESSRKNAKEALAVKAAKGDFVCIFCDRSFRKGKDYSKHLNRHLVNVYYLEEAAQGQE
[1]
  effect on neuronal differentiation: prevented neuronal differentiation

B2: SCP2: small CTD phosphatase-2, SEQ ID NO:4 (protein, listed as Homo sapiens)
chain: MEHGSIITQARREDALVLTKQGLVSKSSPKKPRGRNIFKALFCCFRAQHVGQSSSSTELAAYKEEANTIAKSDLLQCLQYQFYQIPGTCLLPEVTEEDQGRICVVIDLDETLVHSSFKPINNADFIVPIEIEGTTHQVYVLKRPYVDEFLRRMGELFECVLFTASLAKYADPVTDLLDRCGVFRARLFRESCVFHQGCYVKDLSRLGRDLRKTLILDNSPASYIFHPENAVPVQSWFDDMADTELLNLIPIFEELSGAEDVYTSLGAAAGPLACPASKRRPSQ
RNAP IIO; compared with SCP1
  CTD phosphatase activity when RNAP IIO is utilized as substrate: comparable CTD phosphatase activity

B3: GST-SCP1 214: GST fusion of the 214 aa spliced variant of SCP1, SEQ ID NO:8 (protein)
chain: MMGRPCLLTAGRPCLWRRMAPSLRQTPVQYLLPEAKAQDSDKICVVIDLDETLVHSSFKPVNNADFIIPVEIDGVVHQVYVLKRPHVDEFLQRMGELFECVLFTASLAKYADPVADLLDKWGAFRARLFRESCVFHRGNYVKDLSRLGRDLRRVLILDNSPASYVFHPDNAVPVASWFDNMSDTELHDLLPFFEQLSRVDDVYSVLRQPRPGS
modifications: left off: a dimerising Fc or GST
GST-CTDo; substrates prepared by MAPK2/ERK2, 75 fmol each, 7 pmol RAP74
  dephosphorylation of both RNAP IIO and GST-CTDo: comparable efficiency

B4: FCP1: recombinant CTD phosphatase FCP1, class C phosphatase with BRCT domain (protein)
chain: MEVPAAGRVPAEGAPTAAVAEVRCPGPAPLRLLEWRVAAGAAVRIGSVLAVFEAAASAQSSGASQSRVASGGCVRPARPERRLRSERAGVVRELCAQPGQVVAPGAVLVRLEGCSHPVVMKGLCAECGQDLTQLQSKNGKQQVPLSTATVSMVHSVPELMVSSEQAEQLGREDQQRLHRNRKLVLMVDLDQTLIHTTEQHCQQMSNKGIFHFQLGRGEPMLHTRLRPHCKDFLEKIAKLYELHVFTFGSRLYAHTIAGFLDPEKKLFSHRILSRDECIDPFSKTGNLRNLFPCGDSMVCIIDDREDVWKFAPNLITVKKYVYFQGTGDMNAPPGSRESQTRKKVNHSRGTEVSEPSPPVRDPEGVTQAPGVEPSNGLEKPARELNGSEAATPRDSPRPGKPDERDIWPPAQAPTSSQELAGAPEPQGSCAQGGRVAPGQRPAQGATGTDLDFDLSSDSESSSESEGTKSSSSASDGESEGKRGRQKPKAAPEGAGALAQGSSLEPGRPAAPSLPGEAEPGAHAPDKEPELGGQEEGERDGLCGLGNGCADRKEAETESQNSELSGVTAGESLDQSMEEEEEEDTDEDDHLIYLEEILVRVHTDYYAKYDRYLNKEIEEAPDIRKIVPELKSKVLADVAIIFSGLHPTNFPIEKTREHYHATALGAKILTRLVLSPDAPDRATHLIAARAGTEKVLQAQECGHLHVVNPDWLWSCLERWDKVEEQLFPLRDDHTKAQRENSPAAFPDREGVPPTALFHPMPVLPKAQPGPEVRIYDSNTGKLIRTGARGPPAPSSSLPIRQEPSSFRAVPPPQPQMFGEELPDAQDGEQPGPSRRKRQPSMSETMPLYTLCKEDLESMDKEVDDILGEGSDDSDSEKRRPEEQEEEPQPRKPGTRRERTLGAPASSERSAAGGRGPRGHKRKLNEEDAASESSRESSNEDEGSSSEADEMAKALEAELNDLM
RNAP IIO; 3.7 fmol RNAP IIO, 7 pmol RAP74
  dephosphorylation of RNAP IIO prepared with Cdc2 kinase: efficiently dephosphorylates
GST-CTDo
  concentration without dephosphorylation of rCTDo, relative to that required to dephosphorylate RNAP IIO: > 100 times
[2]
  dephosphorylation of Ser 5 versus Ser 2 phosphopeptide: did not act on either phosphopeptide
